Assay results as given in article PMC4760936 (PLoS ONE, 2016).

B1: sdAb E2 (VHH)
VHH: EVQLQASGGGLVQAGGSLRLTCAASGRTFGSYAMGWFRQAPGKEREFVAAISWSGGDTYADSVKGRFTISRDNAKNTVYLQMNSLAPEDTAVYSCAAVGARYYISKDAKDYGYWGQGTQVTVSS
notes: also called Class A exemplar
B2: sdAb D9 (VHH)
VHH: EVQLQASGGGLAQAGDSLRLSCAASIRTFGSYAMGWFRQAPGKEREFVAAISWSGGDTYADSAKGRFTISRDNAKNMMYLQMNSLAPEDTAVYFCAIVEAKYYISKDARDYGYWGQGTQVFVSS
notes: also called Class C exemplar

Molecular target: staphylococcal enterotoxin B (Staphylococcus aureus, strain , UniProt P01552)
Experiment: SPR; ProteOn XPR36; […] (10 mM acetate pH 5.0); […]; Langmuir model
Details: both partners purified

Sequence of staphylococcal enterotoxin B (P01552 28-266): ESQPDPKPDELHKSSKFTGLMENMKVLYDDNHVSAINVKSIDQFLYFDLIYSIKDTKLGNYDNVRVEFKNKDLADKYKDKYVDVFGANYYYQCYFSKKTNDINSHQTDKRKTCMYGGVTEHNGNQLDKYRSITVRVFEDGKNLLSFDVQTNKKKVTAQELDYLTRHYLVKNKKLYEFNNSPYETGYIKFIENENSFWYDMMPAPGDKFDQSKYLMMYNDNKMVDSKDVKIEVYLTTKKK

| Binder | Kd [pM] | koff [s⁻¹] | kon [M⁻¹ s⁻¹] |
| --- | --- | --- | --- |
| B1 | 270 | 0.0035 | 1.3e+07 |
| B2 | 110 | 0.00028 | 2.5e+06 |
